Source: patent US20150056199A1 (ACCELERON PHARMA, published 2015)
Blank lines part the entries; values can stand above or below the binder they belong to.

B1: hTβRII-hG1Fc fusion protein (R&D Systems) incorporating the wild-type TβRIIshort isoform (Fc fusion)
chain: IPPHVQKSVNNDMIVTDNNGAVKFPQLCKFCDVRFSTCDNQKSCMSNCSITSICEKPQEVCVAVWRKNDENITLETVCHDPKLPYHDFILEDAASPKCIMKEKKKPGETFFMCSCSSDECNDNIIFSEEYNTSNPD
notes: Bought from R&D Systems; also called hTβRII-Fc; TGFβ receptor type II (TβRII)-Fc; not shown: human IgG1 Fc domain
B4: murine GDF15 (mGDF15), mature, generated in-house in CHO cells (ligand)
chain: AHPRDSCPLGPGRCCHLETVQATLEDLGWSDWVLSPRQLQLSMCVGECPHLYRSANTHAQIKARLHGLQPDKVPAPCCVPSSYTPVVLMHRTDSGVSLQTYDDLVARGCHCA

Tests used:
[1] = target: T1, GDF15 (human or murine, not specified where printed); test: surface plasmon resonance, receptor-Fc captured, GDF15 as analyte
T1 construct: Used here only where the species cannot be told
Source text: (§1) These fusion proteins incorporated an IgG1 Fc domain and were either purchased from R&D Systems or generated in-house.

[2] = target: B4; test: surface plasmon resonance with captured receptor-Fc fusion proteins
Source text: as §1

[3] = target: B1; test: surface plasmon resonance at 37° C., mGDF15
[4] = target: T2, ALK3 receptor-Fc fusion protein (human, UniProt P36894 24-152); test: surface plasmon resonance with captured receptor-Fc fusion proteins
T2 construct: Bought from R&D Systems or made in-house; not shown: IgG1 Fc domain
T2 sequence (P36894 24-152 limits assumed): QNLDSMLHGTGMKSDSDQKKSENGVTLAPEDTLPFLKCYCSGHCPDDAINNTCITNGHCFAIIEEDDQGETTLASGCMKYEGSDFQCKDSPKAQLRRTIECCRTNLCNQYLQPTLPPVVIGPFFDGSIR
Source text: as §1

[5] = target: T3, ALK6 receptor-Fc fusion protein (human, UniProt O00238 14-126); test: as above
T3 construct: Bought from R&D Systems or made in-house; not shown: IgG1 Fc domain
T3 sequence (looked up): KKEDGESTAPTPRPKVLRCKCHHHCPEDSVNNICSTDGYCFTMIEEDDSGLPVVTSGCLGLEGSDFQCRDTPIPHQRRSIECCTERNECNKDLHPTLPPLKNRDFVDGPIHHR
Source text: as §1

[6] = target: B1; test: surface plasmon resonance at 37° C., hTβRII-Fc captured, hGDF15 as analyte; 37° C.; hTβRII-Fc captured, hGDF15 as analyte
Source text: as §1

[7] = target: B4; test: surface plasmon resonance at 37° C., mGDF15

Binder: B1
- koff [1]: 0.001 s⁻¹
- kon [1]: 292000 M⁻¹ s⁻¹

Binder: B4
- Kd [3]: 4.8 nM
- binding result [4]: no binding (tested: 20 nM or 200 nM)
- binding result [5]: no binding (tested: 20 nM or 200 nM)

B6: fusion protein incorporating the wild-type TβRIIlong isoform (R&D Systems) (Fc fusion)
chain: TIPPHVQKSDVEMEAQKDEIICPSCNRTAHPLRHINNDMIVTDNNGAVKFPQLCKFCDVRFSTCDNQKSCMSNCSITSICEKPQEVCVAVWRKNDENITLETVCHDPKLPYHDFILEDAASPKCIMKEKKKPGETFFMCSCSSDECNDNIIFSEEYNTSNPD
notes: Bought from R&D Systems; also called TβRIIlong-Fc; not shown: Fc fusion partner of the purchased construct is not described for this follow-up analysis
- Kd [7]: 2.7 nM

Next, values leading:

- binding result [2]: no binding (tested: 20 nM or 200 nM)
B2: ALK5 receptor-Fc fusion protein (Fc fusion, human, UniProt P36897 34-126, looked up)
chain: LQCFCHLCTKDNFTCVTDGLCFVSVTETTDKVIHNSMCIAEIDLIPRDRPFVCAPSSKTGSVTTTYCCNQDHCNKIELPTTVKSSPGLGPVEL
notes: Bought from R&D Systems or made in-house; also called TGFβ receptor type I; not shown: IgG1 Fc domain

- binding result [2]: no binding (tested: 20 nM or 200 nM)
B3: ALK7 receptor-Fc fusion protein (Fc fusion, human, UniProt Q8NER5 21-113, looked up)
chain: ELSPGLKCVCLLCDSSNFTCQTEGACWASVMLTNGKEQVIKSCVSLPELNAQVFCHSSNNVTKTECCFTDFCNNITLHLPTASPNAPKLGPME
notes: Bought from R&D Systems or made in-house; not shown: IgG1 Fc domain

- Kd [6]: 9.56 nM
B5: human GDF15 (hGDF15), mature, generated in-house in CHO cells (ligand)
chain: ARNGDHCPLGPGRCCRLHTVRASLEDLGWADWVLSPREVQVTMCIGACPSQFRAANMHAQIKTSLHRLKPDTVPAPCCVPASYNPMVLIQKTDTGVSLQTYDDLLAKDCHCI
notes: also called MIC-1

- binding result [2]: no binding (tested: 20 nM or 200 nM)
B7: ALK4 receptor-Fc fusion protein (Fc fusion, human, UniProt P36896 24-126, looked up)
chain: SGPRGVQALLCACTSCLQANYTCETDGACMVSIFNLDGMEHHVRTCIPKVELVPAGKPFYCLSSEDLRNTHCCYTDYCNRIDLRVPSGHLKEPEHPSMWGPVE
notes: as for B3

- binding result [2]: no binding (tested: 20 nM or 200 nM)
B8: ALK2 receptor-Fc fusion protein (Fc fusion, human, UniProt Q04771 21-123, looked up)
chain: MEDEKPKVNPKLYMCVCEGLSCGNEDHCEGQQCFSSLSINDGFHVYQKGCFQVYEQGKMTCKTPPSPGQAVECCQGDWCNRNITAQLPTKGKSFPGTQNFHLE
notes: as for B3
